Here are results for 3 molecules from paper PMC9277888, “The testis-specific E3 ubiquitin ligase RNF133 is required for fecundity in mice” (BMC Biology, 2022).

Like-named read-outs stand apart in the source and are kept apart here.

One assay deals with T1, human HA-UBE2J1 (human, UniProt Q9Y385 1-318).
T1 construct: E2 ubiquitin-conjugating enzyme UBE2J1, human, full-length open reading frame; also called pCAG-humanUBE2J1; source: HEK293 cells, transfected (pCAG1.1, Lipofectamine 3000), in lysate; not shown: HA, N-terminal, kept
T1 sequence (looked up): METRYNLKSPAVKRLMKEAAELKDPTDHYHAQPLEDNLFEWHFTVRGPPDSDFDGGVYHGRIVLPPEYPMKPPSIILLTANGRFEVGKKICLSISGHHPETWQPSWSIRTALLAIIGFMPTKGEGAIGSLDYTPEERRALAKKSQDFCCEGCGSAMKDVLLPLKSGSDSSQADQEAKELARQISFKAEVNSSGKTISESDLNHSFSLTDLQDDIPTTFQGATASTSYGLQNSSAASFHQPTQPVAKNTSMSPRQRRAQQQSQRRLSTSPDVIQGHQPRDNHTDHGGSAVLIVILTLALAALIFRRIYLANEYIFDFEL
Briefly: co-IP; HEK293 cells co-transfected with FLAG-tagged E3 and HA-tagged E2; lysed by sonication in Pierce IP buffer (25 mM Tris-HCl pH 7.4, 150 mM NaCl, 1 mM EDTA, 1% NP-40, 5% glycerol); anti-HA magnetic beads, 4 C, 1 h; washed with IP buffer with 2 mM DTT; immunoblot with anti-FLAG; band intensities by ImageJ (IP lane to input lane). In general terms: A western blot detects proteins with antibodies after separation by electrophoresis.

The next assay deals with T2, mouse HA-UBE2J1 (mouse, UniProt Q9JJZ4 1-318).
T2 construct: E2 ubiquitin-conjugating enzyme UBE2J1, mouse, full-length open reading frame; also called pCAG-mouseUbe2J1; source: HEK293 cells, transfected (pCAG1.1, Lipofectamine 3000), in lysate; not shown: HA, N-terminal, kept
T2 sequence (looked up): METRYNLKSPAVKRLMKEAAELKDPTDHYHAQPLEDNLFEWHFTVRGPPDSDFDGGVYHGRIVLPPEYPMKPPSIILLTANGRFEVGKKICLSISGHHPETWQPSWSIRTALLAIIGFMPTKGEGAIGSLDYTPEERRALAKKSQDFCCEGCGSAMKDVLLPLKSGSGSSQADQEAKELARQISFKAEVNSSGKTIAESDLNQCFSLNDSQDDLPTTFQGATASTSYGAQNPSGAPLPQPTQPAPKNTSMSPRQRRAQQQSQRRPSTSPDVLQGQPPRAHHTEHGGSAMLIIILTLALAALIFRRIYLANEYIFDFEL
The assay is described as above. As to conditions: partners not purified.

Consider “human RNF133-mutant-FLAG (RING finger domain deleted) (from UniProt Q8WVZ7 1-376) (enzyme)”, for which, in the assay with human HA-UBE2J1, the IP:input ratio (band intensity) was 0.24.

B1: mouse RNF133-FLAG (RING finger protein 133) (enzyme, UniProt Q14B02 1-382, looked up)
chain: MNPLQTSTWQNQAPSFWLLRFSFIWLVSQKCCTASAVWTAYMNISFHVGNRMLSELGETGVFGRSSILKRVAGVVVPPEGKIQNACDPNTTFILPRNKEPWIALIERGGCAFTQKIKVASEHGARGVIIYNFPGTGNQVFPMSHQAFEDIVVVMIGNIKGMEILHLIRKGVHVTVMVEVGRKHVIWLNHYFVSFMIVTTATLAYFTFYHIRRLWVARIENRRWKRLTRELKKAFGQLQVRVLKEGDEEVNPNADSCVICFEAYKPNEIVRILTCKHFFHKNCIDPWILAHGTCPMCKCDILKALGIQMDIEDGTDSLQVLMSNELPGTLSPVEEETNYELPPARTSSKVTHVQEHPTSSANAGSQPPEAEETSHPSHGQQVL
notes: also called mouse RNF133-WT; pCAG-mouseRnf133; source: HEK293 cells, transfected (pCAG1.1, Lipofectamine 3000), in lysate; not shown: FLAG, C-terminal, kept
Consider B1, for which, in the assay with mouse HA-UBE2J1, the “IP:input ratio (band intensity)” value stood at 3.95.

B2: human RNF133-FLAG (RING finger protein 133) (enzyme, UniProt Q8WVZ7 1-376, looked up)
chain: MHLLKVGTWRNNTASSWLMKFSVLWLVSQNCCRASVVWMAYMNISFHVGNHVLSELGETGVFGRSSTLKRVAGVIVPPEGKIQNACNPNTIFSRSKYSETWLALIERGGCTFTQKIKVATEKGASGVIIYNVPGTGNQVFPMFHQAFEDVVVVMIGNLKGTEIFHLIKKGVLITAVVEVGRKHIIWMNHYLVSFVIVTTATLAYFIFYHIHRLCLARIQNRRWQRLTTDLQNTFGQLQLRVVKEGDEEINPNGDSCVICFERYKPNDIVRILTCKHFFHKNCIDPWILPHGTCPICKCDILKVLGIQVVVENGTEPLQVLMSNELPETLSPSEEETNNEVSPAGTSDKVIHVEENPTSQNNDIQPHSVVEDVHPSP
notes: also called human RNF133-WT; RNF133 wild-type; source: HEK293 cells, transfected (pCAG1.1, Lipofectamine 3000), in lysate; not shown: FLAG, C-terminal, kept
Take B2: the “IP:input ratio (band intensity)” value in the assay with human HA-UBE2J1 (partners not purified) was 1.74.
